Test results published in PMC3934923.

Biological target: LKB1 (endogenous, C2C12 myotubes) (mouse (endogenous in C2C12)) (UniProt Q9WTK7)
Conditions: scale: % of the AMPK phosphorylation obtained with AICAR

Sequence of UniProt Q9WTK7 (Q9WTK7 whole entry): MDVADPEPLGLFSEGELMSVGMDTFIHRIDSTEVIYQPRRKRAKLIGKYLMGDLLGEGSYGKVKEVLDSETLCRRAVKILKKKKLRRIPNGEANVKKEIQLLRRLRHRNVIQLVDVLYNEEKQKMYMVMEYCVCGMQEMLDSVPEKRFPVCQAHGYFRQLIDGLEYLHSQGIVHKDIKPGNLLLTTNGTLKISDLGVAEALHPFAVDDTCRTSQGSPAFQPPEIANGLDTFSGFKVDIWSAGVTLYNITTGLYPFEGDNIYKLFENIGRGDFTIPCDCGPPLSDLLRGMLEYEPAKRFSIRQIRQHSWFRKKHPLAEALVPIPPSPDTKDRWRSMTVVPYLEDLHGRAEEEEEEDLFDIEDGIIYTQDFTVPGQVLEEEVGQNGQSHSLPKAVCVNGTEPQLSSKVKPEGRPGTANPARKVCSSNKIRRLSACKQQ

- AMPK T172 phosphorylation in C2C12 myotubes transduced with increasing concentrations of 11R-WT, immunoblot; little effect with 11R-Sca: 80
Substance: Fyn (endogenous, C2C12 myotubes) (from UniProt P39688 1-537) (enzyme)
